From patent CN113004395A (JIANGSU PROVINCIAL CENTER FOR DISEASE CONTROL AND …, dated 2021)

Legend:
重组SARS-CoV2核蛋白(NP) [1] = biological target: 重组SARS-CoV2核蛋白(NP) (SARS-CoV-2, UniProt P0DTC9 1-419)
重组SARS-CoV2核蛋白(NP) [2] = biological target: T1, 重组SARS-CoV2核蛋白(NP) (SARS-CoV-2, UniProt P0DTC9 1-419); experiment: double-antibody sandwich lateral-flow strip, paired with JS08
重组SARS-CoV2核蛋白(NP) [3] = biological target: T1, 重组SARS-CoV2核蛋白(NP); remark: listed apart in the source

B1: JS06 (antibody, V domains shown)
VH: EVQLLESGGGVVQPGRSLRLSCAASGFTFSSYGMHWVRQAPGKGLEWVAVIWYDGSNKYYADSVKGRFTISRDNSKNTLYLQMNSLRAEDTAVYYCARAAYGPYYGMDVWGQGTTVTVSS
VL: not shown
**Q.** Which Kd (重组SARS-CoV2核蛋白(NP) [1]) does the source give for B1 here?
**A.** 16.1 nM

**Q.** And the koff (重组SARS-CoV2核蛋白(NP) [1])?
**A.** 0.00258 s⁻¹

**Q.** What about the kon (重组SARS-CoV2核蛋白(NP) [1]) of the same binder?
**A.** 161000 M⁻¹ s⁻¹

B2: JS13 (antibody, V domains shown)
VH: QVQLVQSGAEVKKPGSSVKVSCKASGGTFSSYAISWVRQAPGQGLEWMGGIIPIFGTANYAQKFQGRVTITADESTSTAYMELSSLRSEDTAVYYCARGGWVICSSTSCYTKYSYYGMDVWGQGTTVTVSS
VL: QSVLTQPPSVSAAPGQKVTISCSGSSSNIGNNYVSWYQQLPGTAPKLLIYDNNKRPSGIPDRFSGSKSGTSATLGITGLQTGDEADYYCGTWDSSLIARLFGGGTKLTVL
**Q.** What does the source list for B2?
**A.** 检测限 (detection limit for NP) (重组SARS-CoV2核蛋白(NP) [2]): < 2 ng/mL; Kd (重组SARS-CoV2核蛋白(NP) [3]): 0.12 nM; koff (重组SARS-CoV2核蛋白(NP) [3]): 9.66e-05 s⁻¹; kon (重组SARS-CoV2核蛋白(NP) [3]): 805000 M⁻¹ s⁻¹

B3: JS14 (antibody, V domains shown)
VH: EVQLLESGGGVVQPGRSLRLSCAASGFTFSSYGMHWVRQAPGKGLEWVAVIWYDGSNKYYADSVKGRFTISRDNSKNTLYLQMNSLRAEDTAVYYCARDGSGSYYWGSLDYWGQGTLVTVSS
VL: not shown
**Q.** B3 was tested. Which “检测限 (detection limit for NP)” value (重组SARS-CoV2核蛋白(NP) [2]) did it give?
**A.** < 2 ng/mL

**Q.** What about the Kd (重组SARS-CoV2核蛋白(NP) [3]) of the same binder?
**A.** 0.178 nM

**Q.** What about the koff (重组SARS-CoV2核蛋白(NP) [3]) of the same binder?
**A.** 0.000221 s⁻¹

**Q.** And the kon (重组SARS-CoV2核蛋白(NP) [3])?
**A.** 1.24e+06 M⁻¹ s⁻¹

B4: JS08 (antibody, V domains shown)
VH: QVQLVQSGPGLVKPSETLSLTCTVSGGSISSYYWSWIRQPPGKGLEWIGNIYYSGSTDYNPSLKSRVTISVDTSKNQFSLRLSSVTAADTAVYYCAREQFSGGDYEGFDFWGQGTLVTVSS
VL: QSVLTQEPSVSGAPGQRVTISCTGSSSNIGAGYDVHWYQQLPGTAPKLLIYGNSNRPSGVPDRFSGSKSGTSASLAITGLQAEDEADYYCQSYDSSLSGWVFGGGTKLTVL
**Q.** With B4 as the binder, how does the Kd (重组SARS-CoV2核蛋白(NP) [1]) read?
**A.** 0.19 nM

**Q.** What about the koff (重组SARS-CoV2核蛋白(NP) [1]) of the same binder?
**A.** 5.77e-06 s⁻¹

**Q.** And the kon (重组SARS-CoV2核蛋白(NP) [1])?
**A.** 30300 M⁻¹ s⁻¹

B5: JS11 (antibody, V domains shown)
VH: EVQLLESGGGVVQPGRSLRLSCAASGFTFSSYGMHWVRQAPGKGLEWVAVIWYDGSNKYYADSVKGRFTISRDNSKNTLYLQMNSLRAEDTAVYYCVGPLMVRGVIIPWGQGTLVTVSS
VL: not shown
**Q.** Which results are given for B5?
**A.** Kd (重组SARS-CoV2核蛋白(NP) [3]): 0.292 nM; koff (重组SARS-CoV2核蛋白(NP) [3]): 5.62e-05 s⁻¹; kon (重组SARS-CoV2核蛋白(NP) [3]): 193000 M⁻¹ s⁻¹

B6: JS05 (antibody, V domains shown)
VH: EVQLLESGGGVVQPGRSLRLSCAASGFIFSSYGMHWVRQAPGKGLEWVAVIWYDGSNKYYADSVKGRFTISRDNSKNTLYLQMNSLRAEDTAVYYCARDLRGPTGWTFDYWGQGTLVTVSS
VL: ENVLTQSPATLSLSPGERATLSCRASQSVSNYLAWYQQRPGQAPRLLIYDSSNRATGIPARFSGSGSGTDFTLTISSLEPEDFAVYYCQHRSNWKITFGQGTRLEIK
**Q.** B6 was tested. Which “检测限 (detection limit for NP)” value (重组SARS-CoV2核蛋白(NP) [2]) did it give?
**A.** < 2 ng/mL

**Q.** And the Kd (重组SARS-CoV2核蛋白(NP) [3])?
**A.** 0.409 nM

**Q.** What about the koff (重组SARS-CoV2核蛋白(NP) [3]) of the same binder?
**A.** 0.000243 s⁻¹

**Q.** And the kon (重组SARS-CoV2核蛋白(NP) [3])?
**A.** 594000 M⁻¹ s⁻¹

B7: JS12 (antibody, V domains shown)
VH: EVQLLESGGGVVQPGRSLRLSCAASGFTFSSYGMHWVRQAPGKGLEWVAVIWYDGSNKYYADSVKGRFTISRDNSKNTLYLQMNSLRAEDTAVYYCARDGSGSYYWGSLDYWGQGTLVTVSS
VL: ENVLTQSPATLSLSPGERATLSCRASQSVSSYLAWYQQKPGQAPRLLIYGASNRATGIPARFSGSGSGTDFTLTISSLEPEDFAVYYCQQRSNWPWTFGQGTKVEIK
**Q.** B7 was tested. Which “检测限 (detection limit for NP)” value (重组SARS-CoV2核蛋白(NP) [2]) did it give?
**A.** < 2 ng/mL

**Q.** And the Kd (重组SARS-CoV2核蛋白(NP) [3])?
**A.** 0.15 nM

**Q.** And the koff (重组SARS-CoV2核蛋白(NP) [3])?
**A.** 7.33e-05 s⁻¹

**Q.** And the kon (重组SARS-CoV2核蛋白(NP) [3])?
**A.** 488000 M⁻¹ s⁻¹

B8: JS01 (antibody, V domains shown)
VH: QVQLVESGAEVKKPGSSVKVSCKASGGTFSSYAISWVRQAPGQGLEWMGGIIPIFGTANYAQKFQGRVTITADESTSTAYMELSSLRSEDTAVYYCARGGWRSSGYHDYSYYGMDVWGQGTTVTVSS
VL: not shown
**Q.** For B8, which “检测限 (detection limit for NP)” value (重组SARS-CoV2核蛋白(NP) [2]) is on record?
**A.** < 2 ng/mL

**Q.** What about the Kd (重组SARS-CoV2核蛋白(NP) [3]) of the same binder?
**A.** 0.22 nM

**Q.** What about the koff (重组SARS-CoV2核蛋白(NP) [3]) of the same binder?
**A.** 0.000479 s⁻¹

**Q.** What about the kon (重组SARS-CoV2核蛋白(NP) [3]) of the same binder?
**A.** 2.18e+06 M⁻¹ s⁻¹
